Assay results: patent publication US20230242902A1, “A HIGHLY ERROR-PRONE […] R[…] FOR TARGETED CONTINUOUS EVOLUTION IN VIVO” (The Regents of the University of California, priority 2017, published 2023)

Each molecule was assayed on p1 (assay: p1 copy number by p1-encoded mKate2 fluorescence). Details: OR-Y24, measured in triplicate.
Format: cell-based, S. cerevisiae
Method in brief: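 p1 copy number came from mKate2 fluorescence of saturated OR-Y24 cultures (triplicates, regrown from 1:10,000), read by flow cytometry and converted through a linear curve calibrated by qPCR (LEU2 against genomic LEU3). For small-scale tests, OD600-normalized plate-reader fluorescence (588/633 nm) was scaled to a w.t. TP-DNAP1 control.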

Molecule | Mean fold-increase over w.t. (p1 copy number) [fold]
E704D: TP-DNAP1 variant (protein) MDYKDKALNDLRNVYADFDSLPLDFRQILIKDRATLLQKEDVEKKILERQEDAKKYAEYLKQSEIPERISLPNIKRHKGVSISFEETSEDMVLEPRPFIFDGLNIRCFRRETIFSLKNKILNMVKESSSFKNVSRQSVSFMYFKIFNKGKVIASTKSVNIYEDKIDERLEDLCNNFDDVLKKIIDVTYGYESLFVSETYSYVIFYAKSIYFPQPRCVNNWGNNIPNILTFDSFKLFTANKNNVSCIKQCSRFLWQKDFNTLEEMIEYKNGNICIVTPQLHINDVRDIKSFNDIRLYSESPIKTFSVIDNTITYLFYFKEHLGVIFNITKSRHDRRVTKFSPLSKFSDVKNITVCFDIESYFDPEKESNQVNIPFICCASIIYNKVIGNIVDFEGRDCVAQMIEYVVDICGELNISSVELIAHNGGGYDFHYILSSMYNPAAIKNILIRNNSFISFNFAHDGVKFSVKDSYSFLLCSLANASKAFLNEETFKKTDFPHHDLKTADDLYKVYKEWSSVNTEINHVVEKEKLLITSEHIVNFTKNDKSKTLIEWSKDYCRNDVLVLSKVWLEFKNAVEDIFNCELVDQTMTLAGLSYKLFQANMPFDVELRHPNKEDYFNMREALIGGRCISVNGIYKDVLCLDVKSLYPASMAFYDQPYGSFKRVSSRPKDELGIYYVRVTPNRNNKSNFFPIRSHNKITYNNFEDSTYIAWYTNVDIDIGLSEGHNIEYIPFDSYGNIGYSWSKKGKIFEKYIKDVLYKLKIKYEKQNNKVKRNVIKIIMNSLWGKFAQKWVNFEYFIKSEDDIDFESEEAYKIWDTDFMLIKKIKESTYSSKPIQNGVFTLSWARYHMKSIWDAGAKEGAECIYSDTDSIFVHKEHFKKNAKFMLNGLKVPIIGSEVGQLELECEFDKLLCAGKKQYMGFYTYFQDGKPCIKEKKRFKGIPSNYIIPELYAHLLSGADKEAKIQFLKFRREWGSVKGYIENKTVKAT | 1.89
E704K: TP-DNAP1 variant (protein) MDYKDKALNDLRNVYADFDSLPLDFRQILIKDRATLLQKEDVEKKILERQEDAKKYAEYLKQSEIPERISLPNIKRHKGVSISFEETSEDMVLEPRPFIFDGLNIRCFRRETIFSLKNKILNMVKESSSFKNVSRQSVSFMYFKIFNKGKVIASTKSVNIYEDKIDERLEDLCNNFDDVLKKIIDVTYGYESLFVSETYSYVIFYAKSIYFPQPRCVNNWGNNIPNILTFDSFKLFTANKNNVSCIKQCSRFLWQKDFNTLEEMIEYKNGNICIVTPQLHINDVRDIKSFNDIRLYSESPIKTFSVIDNTITYLFYFKEHLGVIFNITKSRHDRRVTKFSPLSKFSDVKNITVCFDIESYFDPEKESNQVNIPFICCASIIYNKVIGNIVDFEGRDCVAQMIEYVVDICGELNISSVELIAHNGGGYDFHYILSSMYNPAAIKNILIRNNSFISFNFAHDGVKFSVKDSYSFLLCSLANASKAFLNEETFKKTDFPHHDLKTADDLYKVYKEWSSVNTEINHVVEKEKLLITSEHIVNFTKNDKSKTLIEWSKDYCRNDVLVLSKVWLEFKNAVEDIFNCELVDQTMTLAGLSYKLFQANMPFDVELRHPNKEDYFNMREALIGGRCISVNGIYKDVLCLDVKSLYPASMAFYDQPYGSFKRVSSRPKDELGIYYVRVTPNRNNKSNFFPIRSHNKITYNNFEKSTYIAWYTNVDIDIGLSEGHNIEYIPFDSYGNIGYSWSKKGKIFEKYIKDVLYKLKIKYEKQNNKVKRNVIKIIMNSLWGKFAQKWVNFEYFIKSEDDIDFESEEAYKIWDTDFMLIKKIKESTYSSKPIQNGVFTLSWARYHMKSIWDAGAKEGAECIYSDTDSIFVHKEHFKKNAKFMLNGLKVPIIGSEVGQLELECEFDKLLCAGKKQYMGFYTYFQDGKPCIKEKKRFKGIPSNYIIPELYAHLLSGADKEAKIQFLKFRREWGSVKGYIENKTVKAT | 1.8
S705R: TP-DNAP1 variant (protein) MDYKDKALNDLRNVYADFDSLPLDFRQILIKDRATLLQKEDVEKKILERQEDAKKYAEYLKQSEIPERISLPNIKRHKGVSISFEETSEDMVLEPRPFIFDGLNIRCFRRETIFSLKNKILNMVKESSSFKNVSRQSVSFMYFKIFNKGKVIASTKSVNIYEDKIDERLEDLCNNFDDVLKKIIDVTYGYESLFVSETYSYVIFYAKSIYFPQPRCVNNWGNNIPNILTFDSFKLFTANKNNVSCIKQCSRFLWQKDFNTLEEMIEYKNGNICIVTPQLHINDVRDIKSFNDIRLYSESPIKTFSVIDNTITYLFYFKEHLGVIFNITKSRHDRRVTKFSPLSKFSDVKNITVCFDIESYFDPEKESNQVNIPFICCASIIYNKVIGNIVDFEGRDCVAQMIEYVVDICGELNISSVELIAHNGGGYDFHYILSSMYNPAAIKNILIRNNSFISFNFAHDGVKFSVKDSYSFLLCSLANASKAFLNEETFKKTDFPHHDLKTADDLYKVYKEWSSVNTEINHVVEKEKLLITSEHIVNFTKNDKSKTLIEWSKDYCRNDVLVLSKVWLEFKNAVEDIFNCELVDQTMTLAGLSYKLFQANMPFDVELRHPNKEDYFNMREALIGGRCISVNGIYKDVLCLDVKSLYPASMAFYDQPYGSFKRVSSRPKDELGIYYVRVTPNRNNKSNFFPIRSHNKITYNNFEERTYIAWYTNVDIDIGLSEGHNIEYIPFDSYGNIGYSWSKKGKIFEKYIKDVLYKLKIKYEKQNNKVKRNVIKIIMNSLWGKFAQKWVNFEYFIKSEDDIDFESEEAYKIWDTDFMLIKKIKESTYSSKPIQNGVFTLSWARYHMKSIWDAGAKEGAECIYSDTDSIFVHKEHFKKNAKFMLNGLKVPIIGSEVGQLELECEFDKLLCAGKKQYMGFYTYFQDGKPCIKEKKRFKGIPSNYIIPELYAHLLSGADKEAKIQFLKFRREWGSVKGYIENKTVKAT | 1.84
E704G: TP-DNAP1 variant (protein) MDYKDKALNDLRNVYADFDSLPLDFRQILIKDRATLLQKEDVEKKILERQEDAKKYAEYLKQSEIPERISLPNIKRHKGVSISFEETSEDMVLEPRPFIFDGLNIRCFRRETIFSLKNKILNMVKESSSFKNVSRQSVSFMYFKIFNKGKVIASTKSVNIYEDKIDERLEDLCNNFDDVLKKIIDVTYGYESLFVSETYSYVIFYAKSIYFPQPRCVNNWGNNIPNILTFDSFKLFTANKNNVSCIKQCSRFLWQKDFNTLEEMIEYKNGNICIVTPQLHINDVRDIKSFNDIRLYSESPIKTFSVIDNTITYLFYFKEHLGVIFNITKSRHDRRVTKFSPLSKFSDVKNITVCFDIESYFDPEKESNQVNIPFICCASIIYNKVIGNIVDFEGRDCVAQMIEYVVDICGELNISSVELIAHNGGGYDFHYILSSMYNPAAIKNILIRNNSFISFNFAHDGVKFSVKDSYSFLLCSLANASKAFLNEETFKKTDFPHHDLKTADDLYKVYKEWSSVNTEINHVVEKEKLLITSEHIVNFTKNDKSKTLIEWSKDYCRNDVLVLSKVWLEFKNAVEDIFNCELVDQTMTLAGLSYKLFQANMPFDVELRHPNKEDYFNMREALIGGRCISVNGIYKDVLCLDVKSLYPASMAFYDQPYGSFKRVSSRPKDELGIYYVRVTPNRNNKSNFFPIRSHNKITYNNFEGSTYIAWYTNVDIDIGLSEGHNIEYIPFDSYGNIGYSWSKKGKIFEKYIKDVLYKLKIKYEKQNNKVKRNVIKIIMNSLWGKFAQKWVNFEYFIKSEDDIDFESEEAYKIWDTDFMLIKKIKESTYSSKPIQNGVFTLSWARYHMKSIWDAGAKEGAECIYSDTDSIFVHKEHFKKNAKFMLNGLKVPIIGSEVGQLELECEFDKLLCAGKKQYMGFYTYFQDGKPCIKEKKRFKGIPSNYIIPELYAHLLSGADKEAKIQFLKFRREWGSVKGYIENKTVKAT | 1.75
E704M: TP-DNAP1 variant (protein) MDYKDKALNDLRNVYADFDSLPLDFRQILIKDRATLLQKEDVEKKILERQEDAKKYAEYLKQSEIPERISLPNIKRHKGVSISFEETSEDMVLEPRPFIFDGLNIRCFRRETIFSLKNKILNMVKESSSFKNVSRQSVSFMYFKIFNKGKVIASTKSVNIYEDKIDERLEDLCNNFDDVLKKIIDVTYGYESLFVSETYSYVIFYAKSIYFPQPRCVNNWGNNIPNILTFDSFKLFTANKNNVSCIKQCSRFLWQKDFNTLEEMIEYKNGNICIVTPQLHINDVRDIKSFNDIRLYSESPIKTFSVIDNTITYLFYFKEHLGVIFNITKSRHDRRVTKFSPLSKFSDVKNITVCFDIESYFDPEKESNQVNIPFICCASIIYNKVIGNIVDFEGRDCVAQMIEYVVDICGELNISSVELIAHNGGGYDFHYILSSMYNPAAIKNILIRNNSFISFNFAHDGVKFSVKDSYSFLLCSLANASKAFLNEETFKKTDFPHHDLKTADDLYKVYKEWSSVNTEINHVVEKEKLLITSEHIVNFTKNDKSKTLIEWSKDYCRNDVLVLSKVWLEFKNAVEDIFNCELVDQTMTLAGLSYKLFQANMPFDVELRHPNKEDYFNMREALIGGRCISVNGIYKDVLCLDVKSLYPASMAFYDQPYGSFKRVSSRPKDELGIYYVRVTPNRNNKSNFFPIRSHNKITYNNFEMSTYIAWYTNVDIDIGLSEGHNIEYIPFDSYGNIGYSWSKKGKIFEKYIKDVLYKLKIKYEKQNNKVKRNVIKIIMNSLWGKFAQKWVNFEYFIKSEDDIDFESEEAYKIWDTDFMLIKKIKESTYSSKPIQNGVFTLSWARYHMKSIWDAGAKEGAECIYSDTDSIFVHKEHFKKNAKFMLNGLKVPIIGSEVGQLELECEFDKLLCAGKKQYMGFYTYFQDGKPCIKEKKRFKGIPSNYIIPELYAHLLSGADKEAKIQFLKFRREWGSVKGYIENKTVKAT | 2.02
E704I: TP-DNAP1 variant (protein) MDYKDKALNDLRNVYADFDSLPLDFRQILIKDRATLLQKEDVEKKILERQEDAKKYAEYLKQSEIPERISLPNIKRHKGVSISFEETSEDMVLEPRPFIFDGLNIRCFRRETIFSLKNKILNMVKESSSFKNVSRQSVSFMYFKIFNKGKVIASTKSVNIYEDKIDERLEDLCNNFDDVLKKIIDVTYGYESLFVSETYSYVIFYAKSIYFPQPRCVNNWGNNIPNILTFDSFKLFTANKNNVSCIKQCSRFLWQKDFNTLEEMIEYKNGNICIVTPQLHINDVRDIKSFNDIRLYSESPIKTFSVIDNTITYLFYFKEHLGVIFNITKSRHDRRVTKFSPLSKFSDVKNITVCFDIESYFDPEKESNQVNIPFICCASIIYNKVIGNIVDFEGRDCVAQMIEYVVDICGELNISSVELIAHNGGGYDFHYILSSMYNPAAIKNILIRNNSFISFNFAHDGVKFSVKDSYSFLLCSLANASKAFLNEETFKKTDFPHHDLKTADDLYKVYKEWSSVNTEINHVVEKEKLLITSEHIVNFTKNDKSKTLIEWSKDYCRNDVLVLSKVWLEFKNAVEDIFNCELVDQTMTLAGLSYKLFQANMPFDVELRHPNKEDYFNMREALIGGRCISVNGIYKDVLCLDVKSLYPASMAFYDQPYGSFKRVSSRPKDELGIYYVRVTPNRNNKSNFFPIRSHNKITYNNFEISTYIAWYTNVDIDIGLSEGHNIEYIPFDSYGNIGYSWSKKGKIFEKYIKDVLYKLKIKYEKQNNKVKRNVIKIIMNSLWGKFAQKWVNFEYFIKSEDDIDFESEEAYKIWDTDFMLIKKIKESTYSSKPIQNGVFTLSWARYHMKSIWDAGAKEGAECIYSDTDSIFVHKEHFKKNAKFMLNGLKVPIIGSEVGQLELECEFDKLLCAGKKQYMGFYTYFQDGKPCIKEKKRFKGIPSNYIIPELYAHLLSGADKEAKIQFLKFRREWGSVKGYIENKTVKAT | 1.35
